Data from US6518412B1, “Gene therapy approaches to supply apolipoprotein A-I agonists and their use to treat dyslipidemic disorders” (priority 1997, dated 2003).

Legend:
Format in all cases: physicochemical
[1] = Circular dichroism, degree of helicity (free, SUVs, micelles, TFE)
Procedure: Far UV circular dichroism spectra were recorded between 190 and 260 nm (in 0.5 nm or 0.2 nm increments) with a AVIV62DS spectrometer (AVIV Associates, Lakewood, N.J., USA) equipped with a thermoelectric cell holder and sample changer. The instrument was calibrated with (+)-10-[…]. Between one and three scans were collected for each sample, using 10 cm, 5 cm, 1 cm and 0.1 cm path length quartz Suprasil cells, respectively, for peptide concentrations of 10^−7 M to 10^−4 M. The bandwidth was fixed at 1.5 nm and the scan speed to is per wavelength step. The reported data are the mean of at least 2 or 3 independent measurements.
After background substraction, spectra were converted to molar ellipticity (θ) per residue in deg. […] dmol^−1. The peptide concentration was determined by amino acid analysis and also by absorption spectrometry on a Perkin Elmer Lambda 17 UV/Visible spectrophotometer when the peptide contained a chromophore (tryptophane, dansyl, naphtylalanine). […]
All spectra were recorded at 37° C. The stability of peptide 210 (SEQ ID NO:210) as a function of temperature (both free in buffer and in micelles) was determined by recording spectra at a series of different temperatures.
The degree of helicity of peptide 210 (SEQ ID NO:210) as a function of concentration was also determined.
The degree of helicity of the peptides in the various conditions was determined from the mean residue ellipticity at 222 nm (Chen et al., 1974, Biochemistry 13:3350-3359) or by comparing the CD spectra obtained to reference spectra available on databases (16 helical reference spectra from Provencher & Glockner, 1981, Biochemistry 20:33-37; denatured protein reference spectra from Venyaminov et al., 1993, Anal. Biochem. 214:17-24) using the CONTIN curve-fitting algorithm version 2DP, CD-1 pack (August 1982) (Provencher, 1982, Comput. Phys. Commun. 27:213-227, 229-242). Acceptable fit was determined using the statistical analysis methodology provided by the CONTIN algorithm. […]

[2] = NMR analysis of peptide structure; conditions: 25% TFE at 295 K
Procedure: Samples were prepared by dissolving 5 mg of peptide in 90% H2O/10% D2O containing trace amounts of 2,2-Dimethyl-2-sila-5-pentane sulfonate (DSS) as an internal chemical shift reference. Some of the samples contained trifluoroethanol (TFE) (expressed as % vol). The total sample volume was 500 μl and the concentration of peptide was approximately 5 mM.
^1H NMR spectra were acquired at 500 MHz using a Bruker DRX500 spectrometer equipped with a B-VT2000 temperature control unit. One and two-dimensional experiments were recorded using standard pulse sequences. (Two Dimensional NMR Spectroscopy, Eds. W. R. Croasmun and RMK Carlson, 1994, VCH Publishers, New York, USA). […] Two-dimensional experiments were carried out in the phase sensitive mode using time proportional phase incrementation (TPPI) and a spectral width of 6000 Hz in both dimensions. Typically, 40 scans were co-added for 400 t1 increments with 2048 data points. […]
Complete proton resonance assignments were obtained by applying the sequential assignment technique using DQFCOSY, TOCSY and NOESY spectra as described in the literature (Wuthrich, NMR of Proteins and Nucleic Acids, 1986, John Wiley & Sons, New York, USA). Secondary chemical shifts were calculated for HN and Ha protons by subtracting the tabulated random coil chemical shifts (Wishart and Sykes, 1994, Method. Enz. 239:363-392) from the corresponding experimental values.

[3] = Superose 6 gel filtration chromatography of peptide-lipid complexes; conditions: 1 mg peptide and 3 mgs DPPC, colyophilized, 0.9% NaCl
Procedure: One mg of peptide 149 ([…]; SEQ ID NO:149) was dissolved in 250 μl HPLC grade methanol (Perkin Elmer) in a one ml clear glass vial with cap (Waters #WAT025054). Dissolving of the peptide was aided by occasional vortexing over a period of 10 minutes at room temperature. To this mixture an aliquot containing 3 mg dipalmitoyl-phosphatidyl-choline (DPPC; Avanti Polar Lipids, 99% Purity, product #850355) from a 100 mg/ml stock solution in methanol was added. The volume of the mixture was brought to 400 μl by addition of methanol, and the mixture was further vortexed intermittently for a period of 10 minutes at room temperature. To the tube 200 μl of xylene (Sigma-Aldrich 99% pure, HPLC-grade) was added and the tubes were vortexed for 10 seconds. […]
Peptide-phospholipid complexes containing peptide 149 (SEQ ID NO:149) were prepared by colyophilization as described above. […] The chromatography was monitored by absorbance or scattering of light of wavelength 280 nm. […] The vast majority of both phospholipid and UV absorbance were recovered together in a few fractions with peaks at approximately 15.8 mls. […]
For comparison, a separate chromatogram of 20 μl of human HDL2 was run under the same conditions and using the same column as the peptide 149 complexes. […] The column eluate was monitored by absorbance or scattering of light of wavelength 254 nm. […]

| Sequence | stability of α-helical structure with temperature [1] | helicity in the presence of TFE ([1]; TFE) | helicity ([1]; in micelles) [%] | conformation from Hα secondary shifts [2] | Stokes' diameter [3] [Angstroms] |
| --- | --- | --- | --- | --- | --- |
| PVLDLFRELLEELKQKLK [peptide 210] | completely stable | increases | 63 | highly helical conformation |  |
| PVLELFENLWERLLDALQKKLK [peptide 149] |  |  |  |  | 87 |
